This data set has as its target T1, GST-SDE2-FLAG WT (human) (UniProt Q6IQ49).
T1 sequence: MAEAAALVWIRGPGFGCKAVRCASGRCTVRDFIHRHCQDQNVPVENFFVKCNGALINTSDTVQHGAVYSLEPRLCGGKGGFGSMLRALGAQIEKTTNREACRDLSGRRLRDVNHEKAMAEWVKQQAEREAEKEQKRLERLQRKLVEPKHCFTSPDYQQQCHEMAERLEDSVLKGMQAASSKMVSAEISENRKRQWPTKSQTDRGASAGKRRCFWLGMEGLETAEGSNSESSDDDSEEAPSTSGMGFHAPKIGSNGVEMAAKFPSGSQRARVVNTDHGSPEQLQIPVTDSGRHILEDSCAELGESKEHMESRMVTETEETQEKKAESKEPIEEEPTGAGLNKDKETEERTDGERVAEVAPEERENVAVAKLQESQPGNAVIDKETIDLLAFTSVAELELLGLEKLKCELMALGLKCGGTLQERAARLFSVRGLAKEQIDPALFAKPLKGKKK
The experiment in a line: fluorescence anisotropy. Particulars: EMSA: 10 mM Tris-HCl pH 7.5, 50 mM NaCl, 0.5 mM DTT, 0.05 mM EDTA, 3% glycerol, 0.05 mg/ml BSA (or 50 mM Na/K PO4 pH 6.0, 50 mM NaCl, 5 mM DTT), on ice ….

Take “GACGCTGCCGAATTCTACCAGTGCCTTGCTAGGACATCTTTGCCCACCTGCAGGTTCACCC (double strand) [60-mer dsDNA (EMSA1/EMSA2)]”: the dissociation constant Kd was determined as 24.2 µM.

The record behind these values is paper PMC9399289.
